According to paper PMC10876603:

Target: microtubules (polymerised α/β-tubulin) (UniProt Q6B856)
Sequence of UniProt Q6B856 (Q6B856 whole entry, looked up): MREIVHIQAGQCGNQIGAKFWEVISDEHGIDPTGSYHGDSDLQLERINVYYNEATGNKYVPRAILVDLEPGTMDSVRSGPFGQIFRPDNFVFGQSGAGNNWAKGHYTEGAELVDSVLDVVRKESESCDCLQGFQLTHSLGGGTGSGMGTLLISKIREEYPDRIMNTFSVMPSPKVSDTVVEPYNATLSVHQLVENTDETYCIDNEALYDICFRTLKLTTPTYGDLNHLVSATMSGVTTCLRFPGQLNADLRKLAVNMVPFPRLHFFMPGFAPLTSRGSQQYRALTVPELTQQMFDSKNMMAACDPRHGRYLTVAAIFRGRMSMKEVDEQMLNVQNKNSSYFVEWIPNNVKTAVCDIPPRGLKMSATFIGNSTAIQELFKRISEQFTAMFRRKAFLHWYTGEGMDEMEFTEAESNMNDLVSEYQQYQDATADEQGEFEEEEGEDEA

- width of bundles of GMpCpp-stabilized rhodamine-labeled MTs (100 nM) after 2 min with 4 μM CEN, TIRF microscopy (single GMpCpp MTs measure 0.34 μm): 0.46 μm
Substance: human CEN subcomplex with wild-type Borealin (CEN-Borealin^wt) (from UniProt Q9NQS7 1-58; O15392 1-142; Q53HL2 1-280)
